According to patent US20180028516A1, “METHODS AND DEVICES FOR THE TREATMENT OF OCULAR DISEASES IN HUMAN SUBJECTS” (CLEARSIDE BIOMEDICAL, INC., priority 2012, published 2018):

Experiments:
[1] = Phase 1 safety and tolerability of suprachoroidal bevacizumab in patients with CNV secondary to wet AMD (Example 14); assay type: in vivo, human
Protocol: (§1) The safety and tolerabilty of a single microneedle injection of bevacizumab into the suprachoroidal space (SCS) using a micronocedle was evaluated. Four adult patients with choroidal neovascularization (CNV), secondary to wet age-related macular degeneration (AMD), were enrolled in a phase 1, single-center, open-label study. Each subject provided informed consent and was screened for eligibility. […] Treated patients remained in the clinic for 4 hours for observation and then retumed multiple times for follow-up during a 2 month period. Major safety examinations included intraocular pressure (IOP), angiograms, biomicroscopy, indirect ophthalmoscopy, fundus photography, optical coherence tomography (OCT), visual acuity (VA) (Table 8), and assessment of pain.

[2] = Visual acuity of patients after suprachoroidal bevacizumab (Example 14); assay type: in vivo, human
Protocol: as §1

[3] = Delivery and clearance of sodium fluorescein from the suprachoroidal space in live rabbits (Example 5); assay type: in vivo, rabbit; details: SCS injection
Protocol: The delivery of a fluorescent molecule (sodium fluorescein) to the suprachoroidal space was evaluated using rabbits according to approved live animal experimental protocols. A one dimensional scan of the eye (through line of sight) was taken within the first five minutes after injection to determine the dispersion of the fluorescent molecule in the eye (FIG. 14). The y-axis indicates the fluorescent intensity (i.e., the concentration) and the x-axis represents the position in the eye from front (160) to back (0). Thus, the results illustrate that within the first 5 minutes after injection, the fluorescein had already flowed through the suprachoroidal space to the back of the eye. with some remaining at the initial insertion site.
Similar scans were taken to evaluate the rate of clearance of fluorescein from the suprachoroidal space over time (FIG. 15). The fluorescent intensity was measured in two regions of the eye (the suprachoroidal space and mid-vitreous region) over time. The results illustrate that the bulk of the material injected remains in the suprachoroidal space without passing into the mid-vitreous region and that the material substantially cleared the suprachoroidal space within 24 hours.

bevacizumab: humanized monoclonal antibody, angiogenesis inhibitor (Avastin)
effect on IOP, OCT or VA ([1]; 100 μL bevacizumab SCS, any subject): No negative effect | adverse events related to bevacizumab or the method of administration ([1]; 100 μL bevacizumab SCS, ophthalmic examinations): no unexpected or serious adverse events | level of pain recorded for the administration ([1]; 100 μL bevacizumab SCS, topical anesthesia, four patients): moderate | intraretinal fluid (OCT) ([1]; patient number 3, 56 days after injection vs before injection): Decrease | rescue therapy or reinjection ([1]; two months following treatment): No patients required rescue therapy or reinjection | Visual Acuity ([2]; Patient 1, 28 day post dose): 20/40 | Visual Acuity ([2]; Patient 1, 56 day post dose): 20/40 | Visual Acuity ([2]; Patient 1, Pre-does): 20/80 | Visual Acuity ([2]; Patient 1, Screening): 20/40 | Visual Acuity ([2]; Patient 2, 28 day post dose): 20/20 | Visual Acuity ([2]; Patient 2, 56 day post dose): 20/20 | Visual Acuity ([2]; Patient 2, Pre-does): 20/40 | Visual Acuity ([2]; Patient 2, Screening): 20/40 | Visual Acuity ([2]; Patient 3, 28 day post dose): 20/250 | Visual Acuity ([2]; Patient 3, 56 day post dose): 20/250 | Visual Acuity ([2]; Patient 3, Pre-does): 20/320 | Visual Acuity ([2]; Patient 3, Screening): 20/320 | Visual Acuity ([2]; Patient 4, 28 day post dose): 20/400 | Visual Acuity ([2]; Patient 4, 56 day post dose): 20/400 | Visual Acuity ([2]; Patient 4, Pre-does): 20/400 | Visual Acuity ([2]; Patient 4, Screening): 20/400

O=C1OC2(c3ccc(O)cc3Oc3cc(O)ccc32)c2ccccc21 [fluorescein, sodium fluorescein]
time to substantial clearance from the suprachoroidal space ([3]; fluorescent intensity): ≤ 24 h | time for fluorescein to flow through the suprachoroidal space to the back of the eye ([3]; one dimensional fluorescence scan): ≤ 5 min
